Measurements reported in paper PMC5510000, “RPA activates the XPF‐ERCC1 endonuclease to initiate processing of DNA interstrand crosslinks”.

Biological target: RPA (full-length heterotrimer) (Homo sapiens, UniProt P27694;P15927;P35244 1-616;1-270;1-121)
Assay: fluorescence anisotropy; 1 mM MnCl2; Fluorescence anisotropy: nuclease buffer (composition and pH not in the material) with 1 mM MnCl2, RPA mixed 1:1 with 10 nM fluorescein-labelled DNA, 30 ul, room temperature, 10 min; sigmoidal fit
Details: protein: recombinant, copies: 1;1;1

RPA (full-length heterotrimer), sequence (P27694 whole entry, chain 1 of 3): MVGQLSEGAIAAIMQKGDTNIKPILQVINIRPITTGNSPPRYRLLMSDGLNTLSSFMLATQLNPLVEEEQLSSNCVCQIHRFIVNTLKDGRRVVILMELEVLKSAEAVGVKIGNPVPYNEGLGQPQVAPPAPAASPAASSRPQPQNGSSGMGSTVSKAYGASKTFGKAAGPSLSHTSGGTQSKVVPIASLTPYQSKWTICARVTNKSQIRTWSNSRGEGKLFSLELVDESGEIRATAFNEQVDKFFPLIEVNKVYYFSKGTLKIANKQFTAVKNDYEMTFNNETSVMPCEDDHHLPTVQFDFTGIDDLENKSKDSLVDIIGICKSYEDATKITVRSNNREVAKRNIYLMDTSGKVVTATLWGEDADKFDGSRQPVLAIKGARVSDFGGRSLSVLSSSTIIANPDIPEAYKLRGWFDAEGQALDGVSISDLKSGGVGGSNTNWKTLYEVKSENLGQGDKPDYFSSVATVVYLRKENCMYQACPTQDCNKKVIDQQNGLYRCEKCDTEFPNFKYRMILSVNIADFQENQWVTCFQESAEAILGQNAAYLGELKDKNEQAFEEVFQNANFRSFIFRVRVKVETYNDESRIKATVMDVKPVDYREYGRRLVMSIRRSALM
RPA (full-length heterotrimer), sequence (P15927 whole entry, chain 2 of 3): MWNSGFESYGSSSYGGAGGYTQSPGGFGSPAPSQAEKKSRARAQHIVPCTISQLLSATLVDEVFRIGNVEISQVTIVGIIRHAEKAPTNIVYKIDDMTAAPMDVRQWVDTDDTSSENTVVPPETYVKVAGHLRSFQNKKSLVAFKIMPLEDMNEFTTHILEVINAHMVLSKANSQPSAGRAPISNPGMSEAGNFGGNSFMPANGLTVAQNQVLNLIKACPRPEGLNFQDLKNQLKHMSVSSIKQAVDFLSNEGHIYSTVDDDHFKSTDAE
RPA (full-length heterotrimer), sequence (P35244 whole entry, chain 3 of 3): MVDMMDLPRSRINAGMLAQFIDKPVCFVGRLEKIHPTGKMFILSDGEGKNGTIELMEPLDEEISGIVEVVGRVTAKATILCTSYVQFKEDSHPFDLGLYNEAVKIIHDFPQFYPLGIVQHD

Binder	Kd (fork: 28 bp duplex, 22 nt 3' arm (strand 1) and 22 nt 5' arm (strand 2))	Kd (fork 1:2 2:3, 28 bp parental duplex, 22 bp lagging arm, 22 nt 3'-ssDNA arm on strand 1)
simple fork (mixed) DNA 1: ATAAATATTTTTTATTAATAATAGATCACCTTTCTTTCTCTTCTCCCCTT DNA 2: TTCCCCTCCTCTCCTTCCTTCCTGATCTATTATTAATAAAAAATATTTAT	6.3 nM	
fork + lagging strand (mixed) DNA 1: ATAAATATTTTTTATTAATAATAGATCACCTTTCTTTCTCTTCTCCCCTT DNA 2: TTCCCCTCCTCTCCTTCCTTCCTGATCTATTATTAATAAAAAATATTTAT ?: GGAAGGAAGGAGAGGAGGGGAA		6.2 nM
